The values below come from the DeepSol protein solubility set.

This data set in a line: soluble on expression in E. coli; label from the status in PepcDB or PDB records.
For “MAEYKFYYFNGRGLGDVSRQLFALSGTKYEDIRIEHADWPAQKPKMPFGQMPVLELSSGLQIPQSMAIARYLAKKFGYAGKTDEEAALADALIDQFKDFYAEIKPYYYAKIGVLQNDTEEEKKKTLIPARDKFLTIIGKFLKLSISGFLFSGGLTYADLMICDNMRTLIAWWPEYLNEYPDIKAWYQKVDGIPEIRKHLESSPDKGF”, the “soluble on expression in E. coli” value is listed as “soluble”.

Regarding “MSLQASEQVPSIQIGEPGVTVEAGDHICAFYPTLAERDEILLPYLSEGMLAGEKCIAVLDTDDLDGIRQAVSGQGLPSPKDGNQLELRRSRNAYLANGSFETEAMLKFWEDHVGAAVAEGFPFARVAGEMTWALSNLPGVDQLVGYEAKLNRLLPRYPQVVLCLYELERFDGEVLVDVLKTHPKVLLGGMVLDNPYYLEPEEFLASREGHHHHHH”, the “soluble on expression in E. coli” value is given as “soluble”.

As to “MSLGPVVHQTSSRFRRRSAQPTWDMSDGCADAIAFRVDSEGIKLHGFGIYLPTEPDRRNFVGEIMMLSPDSSEKWTCLLRVTAEMSSEEKEVGIVRFPEYVLLSPGVTYAVKVNMMKNTKTFCGEGGVTQVHLLNGARLFFSGCSMSQNGTTVQRGQLPYLIYSILDQSNSLQIKQEGHHHHHH”, the “soluble on expression in E. coli” value is “soluble”.

With “MSLTIGIWILGDQLWSGQTALKSHQGDRSQVPVLLIESAEFARQRPYHRQKLVLVWSAMRHFAEDLRAEGWSVTYEIAADFLTPLHHWLKTQGVSHLQVMAPGDRPFEAWLKSLTLPCELTLLPNNHFLWSREDFSAWAGDRKRLLLEDFYRAGRKRWQILMVDDQPVGGRWNFDQDNRKPAKKNLSPPKPLSFPPDDITQQVIERIEQLNLPGYGQLSGFQWGEGHHHHHH”, the “soluble on expression in E. coli” value is “soluble”.

Consider “GKSIFDKLWDRHVITGKEGEPQLMYVDQHYIHEVTSPQAFQGLRDAGRKVRRPDLTFGTFDHNVPTVNIYDIRDVISKAQMDALARNVIEFNIPHADHGSENQGIVHMVGPETGRTQPGKFIVCGDSHTATHGAFGAIGFGIGTTEVEHVFATQTIWQVKPKK”, for which the “soluble on expression in E. coli” value is “not soluble”.

Consider “MGSDKIHHHHHHMGLSTSTKTFAERLEESKKDQFAKAAVAKAQDAQWEKRESARDELGNWQEWRDIAESIRQHTLKYLPHYLTEFSDNVAARGGHVFFAADAKEANDYVKRIVLEKNAKKIVKSKSMVTTEVDIDPMLVSLSDDMDILETDLAEFILQVADWDEPSHIVFPALHKNRDQIREIFAKKLGYEGDNNPVNLARCARDTMRKLFLKSEVGITGCNFAIANTGDINLSTNEGNADLTISIPKTQIVLMGMERIVPSIKEAEILDNMLARSAVGQKLTTYVTFAGQQADDESDGPEDFHVVIVDNGRSNAIGTAFEAVLQCIRCGACLNVCPVYRQIGGHAYGSIYPGPIGSVLSPVLGGYEQYGDLPYASTLCGACTETCPVKIPLHELLIEHRKVMEDDLSMHHDGSFVNFEMNTIGKGTSSPALFGMAINMAHTGLNMLPKAKEVSVEGSLFNYGAVRKAPALAKGWTDVRDLPIAPPHKEQFRQWYKKHKAGK”, for which the “soluble on expression in E. coli” value is “not soluble”.

On to “MGSDKIHHHHHHMRKINMMTTFECRVHTLEFDENYQPEMQSTRLTTNFANLARGENRKENLQNVIAMIDKRFNDLANWDNPTNDRYSVKLEIVSIDIDMEGKGKFFPALEWLKTYVIDHKTGKRIDGIVGNNFSSFVRDYDFSVLLLEHNRNKEEFTVPKGYGELHGKLFKYLLTSSAYKEKYSKPPVICLSVATTRTYRRTTNVHPILGVEYHQDNYSLTDEYFAKMGLSVRYFMPPKSVAPYAFYFDSNSDLLNDYTNLELISTIATMEAFQKIYRPEIYNANSVAGQVYKGSLTYQDYSVTKVEYDRVERTQLAIKQGKYTEAHFIKPYKAILDAWMAEK”, for which the “soluble on expression in E. coli” value is given as “not soluble”.

Turning to “SLFIDAHNHLDFFEEQEKLNKALDIIKNDNIITLGCSMDTKSYKFTKSLALKNKNIIPCFGIHPSRAHENFKNLECFDEYIRESKIIGEIGLDYVWVKEKEKYPHMKRVFTYFLEEAKKYNKITNIHTKGAESEIYNYIKKYELKTPIIHWYSGDKDTLKKLLDYGCYFTISVDIGYSKLSKEIVQLLPIDKILTETDGPTSLEWVNGDYGYPNVIKNVVKEISKIKNIQEEEVKGVIENNFKTLIRKEGITL”, the “soluble on expression in E. coli” value is given as “not soluble”.

Regarding “MSLIDWTRPLADRMRPRLLTEFVGQSHLLDAGKPLREVIEAGRPHSMVFWGPPGTGKTTLARLIAEATEAEFLALSAVMAGVKEIRQASATGQANRARGRQTILFVDEVHRFNKAQQDAFLPFIEDGTVVFIGATTENPSFELNNALLSRLRTYVLRPLGEAALARIIDCALEDSERGLGTKQLALSEQARSLLIQAADGDARSALSLLEVAADLSAAEARIDIDLIRAAAAGGRARFDKRGEAFYDEISALHKAVRGSAPDAALYWLCRMLAGGCDPLYLARRLLRMASEDIGNADPRGLQVALNAWQAQERLGSPEGELAIAQAVVYLASVPKSDAVYRAYRLAAEDVRSHGSLEVPLALRNAPTRLLRELGYGRGYRYAHDEPEGYAAGAEYFPAELIGTRYYHPADRGLERQIGERLRRLRELDRATEGHHHHHH”, the “soluble on expression in E. coli” value is “not soluble”.

With “MGHHHHHHSHLEDFFKNMVKSADGVIVSGVKDVDDFFEHERTFLLEYHNRVKDASAKSDRMTRSHKSAADDYNRIGSSLYALGTQDSTDICKFFLKVSELFDKTRKIEARVSADEDLKLSDLLKYYLRESQAAKDLLYRRSRSLVDYENANKALDKARAKNKDVLQAETSQQLCCQKFEKISESAKQELIDFKTRRVAAFRKNLVELAELELKHAKGNLQLLQNCLAVLNGDT”, the “soluble on expression in E. coli” value is “not soluble”.

As to “MGSDKIHHHHHHMFSGIAHCADCGSKLYYCTTRYFETRHDHFRCSASQKAVDPCTSHFIRAVVLEEMVLAHMRYVIGFVQRYEDSFRVSIEAERSTEIQKELSAKRKQIAQSQKRVDDLDVLFRKVYEDNASGKLTDERFMQLSRGYDLEQKTLRQMITMLEKEIDQQEQKTTQVEDFIAKCKRYSSLETLTPAILNDLVIKVFVEAPDKSTGKRRQGIHISYNLVGILPPLERFQPVVVERPNKEKAETA”, the “soluble on expression in E. coli” value is reported as “not soluble”.

Regarding “MNSIVNGLYTFMSTTVVPAVTEQAANLVGGASALAEGATQALTQISQTALEWGSGSEDATASSEVFSWEQQGAAAASSDLQEDKKETTEDVHQEAIGASSPNTSIEWEVIHENPDETGPIRHNQFEMVQNNYEWMKNSK”, the “soluble on expression in E. coli” value was “soluble”.

As to “MITRIPRSSFSANINNTAQTNEHQTLSELFYKELEDKFSGKELATPLLKSFSENCRQNGRHIFSNKDFVIKFSTSVLQADKKEITIINKNENTTLTQTIAPIFEKYLMEILPQRSDTLDKQELNLKSDRKEKEFPRIKLNGQCYFPGRPQNRIVCRHIAAQYINDIYQNVDYKPHQDDYSSAEKFLTHFNKKCKNQTLALVSSRPEGRCVAACGDFGLVMKAYFDKMESNGISVMAAILLVDNHALTVRLRIKNTTEGCTHYVVSVYDPNVTNDKIRIMSESKENIKHYSLMDFMNVDYSLLKWSNDHVINQSVAIIPALPKEQLLMLKGSVDEITPPLSPATMNLLMAIGQNHQLTQLMIQLQKMPELHRTEMLTAYNSINLPGLYLAINYGNADIVETIFNSLSETGYEGLLSKKNLMHILEAKDKNGFSGLFLAISRKDKNVVTSILNALPKLAATHHLDNEQVYKFLSAKNRTSSHVLYHVMANGDADMLKIVLNALPLLIRTCHLTKEQVLDLLKAKDFYGCPGLYLAMQNGHSDIVKVILEALPSLAQEINISASDIVDLLTAKSLARDTGLFMAMQRGHMNVINTIFNALPTLFNTFKFDKKNMKPLLLANNSNEYPGLFSAIQHKQQNVVETVYLALSDHARLFGFTAEDIMDFWQHKAPQKYSAFELAFEFGHRVIAELILNTLNKMAESFGFTDNPRYIAEKNYMEALLKKASPHTVRAAALEHHHHHH”, the “soluble on expression in E. coli” value is listed as “not soluble”.

In the case of “TEERLKEIEAKYDEIAKDWPKKVKHVLHEEHELELTRVQVYTCDKCEEEGTIWSYHCDECDFDLHAKCALNEDTKE”, the “soluble on expression in E. coli” value was “soluble”.

“MAHHHHHHMQSQQHHYTASPTASPALSRAGVSSTPVLILDLGSRTIKSGLHTATTPHLTPALVGTPKYPRCLPQVSSSFNQSSSISTSCFVVGSDAASRRGVLRLSRPIQHGGVIMDWVGTRPLLRQSIQNALVPPSSSLAVRQPLEEGEDVIYSLVESPYASRPQRARLAELLFEGPDQEAVMSDSGKQQRVGPRAAGVFCGVGPLLALYATGQTTGVVVDVGDGAVSTAAAADGYVLPQCLQREADGATGAAVTSYLTRLLYQSGVLGPAAATAAFRRSAPPSLLGSATNHLSSGAGAGTQQERELVYALKEACCSVSATPLFSTKSSLAAADASTAATPSLAELNSALIAAAQRTQHSGPGGSGAAHASTPFSHPFTLPDGSFLEVGGAEAAQASEVLFYPALMGSEGRGVVDVVLDAVAAAPAELQPQLLGNVVVTGGVTCSAGFGYRFFNEMQQRIRGCAASSTNGSSNQRICVSAPEQRAYAAWMGASYVAQISSFASSMVVTRAAYEEEGEAALARRVLT”: the “soluble on expression in E. coli” value is “not soluble”.

“SLVYDGNNKLIADLGSEKRESVSADSIPLNLVNAITSIEDKRFFKHRGVDIYRILGAAWHNLVSSNTQGGSTLDQQLIKLAYFSTNKSDQTLKRKSQEVWLALQMERKYTKEEILTFYINKVYMGNGNYGMRTTAKSYFGKDLKELSIAQLALLAGIPQAPTQYDPYKNP”: the “soluble on expression in E. coli” value is reported as “not soluble”.

As to “MERVSITERPDWRDKATEYGFNFHTMYGEPYWCEDAYYKLTLAQVEKLEDVTAELHQMCLKVVERVIASDELMTKFRIPKHTWGFVRQSWQTQQPSLYSRLDLAWDGIGEPKLLENNADTPTSLYEAAFFQWIWLEDQINAGNLPEGSDQFNSLQEKLIERFAELREQYGFQLLHLTCCRDTVEDRGTIQYLQDCAAEAEIATEFLYIDDIGLGEKGQFTDLQDQVIANLFKLYPWEFMLREMFSTKLEDAGVRWLEPAWKSIISNKALLPLLWEMFPDHPNLLPAYFAEDEHPPMDKYVVKPIFSREGANVSIIENGKTIESVEGPYGEEGMIVQQFYPLPKFGDSYTLIGSWLINDQPAGIGIREDRALITQDLSRFYPHIFVEG”, the “soluble on expression in E. coli” value is reported as “not soluble”.

With “MLASIVISSVHSIGTGALECRATHRGHRAGPYLSSSETRHRAAISGTVDMRETKQGLRHSGRSPSVASPKIDELIGRPQPDTIRLSRGRPVRNS”, the “soluble on expression in E. coli” value is recorded as “not soluble”.

In the case of “MAHHHHHHMKSTRTTAKVRPACLPYSTTMRSSRQTSSLLSRVAHSVGAVVAKANLLRQSPSREAHRPSGPAEGLRPSSSSAKPPVLASGDILRDLAFFTQASEVGFFSTHPSLCAQVFGVVPGDVFEVGGGCAVTSSSVVDVDAGSRMAREAIVVVGARSGKLWVWAYGDEAARVLRVPSSTTSAMLSSAVEVRAAIVEHYQLRQLVHPSRRQCSAGGGKAMEQDAQVEFARTVCEAFQSLCARAHEEVQRLYTPDQLAFLQRAPDLYAAATKRVDRVASSLDDASPTAGVNSEPQRQQPNHPPDGSSSFLPRSIYSDIARHAQHAAAVVLLAPRVSLVTGAVGWVGEGDVVLADSLVSQGGCAEASLSASVVI”, the “soluble on expression in E. coli” value is listed as “soluble”.

Consider “MKGGLLVDDEFIHGAARSLTVRKTSLFFAGDGFTVYDCKGSLVFRVDSYGGPNTRDTDEVVLMDAHGRCLLTLRRKRPSLRRRWEGYLGERSDGQKPIFGVRRSSIIGRNSVTVEVYGDYQCSEYLIEGSFGARNCTVVEAETRRKVAEIRRKVDASTNVMLGKDVFSLNVKPGFDGAFAMGLVLVLDQIYGDDLLEVGEEQVHPSAEDL”, for which the “soluble on expression in E. coli” value is given as “soluble”.

As for “MFSTVFVAGYGNSTEGHWQNSWCKITKNSYWVEQEDWNNPNCVDWIESLNALVQSIDGPILLVSHSLGGSTIVEWSKKYSANIIGAFMVAVPDVQCEHFPKEISGYQLPPLEKLPFPSMLLASTNDPYSTLDRSKYFVDIWGSDLTIVGDLKHVNADSNIGEWSYGLNLLNKFITSIDS”, the “soluble on expression in E. coli” value is listed as “not soluble”.
